Laboratory results as given in PMC9452428, “Molecular study on recombinant cold-adapted, detergent- and alkali stable esterase (EstRag) from Lysinibacillus sp.: a member of family VI” (World Journal of Microbiology & Biotechnology, 2022).

System: CC(=O)Oc1ccc([N+](=O)[O-])cc1
Assay: purified protein
Details: 50 mM Tris-HCl pH 8.0, room temperature, substrate 0.0015-3.0 mM

## EstRag (Lysinibacillus sp. YS11)
  Km: 31 µM
  kcat: 20.4 s⁻¹
  kcat/Km: 658000 M⁻¹ s⁻¹
